Patent US8029979B2, “Method for determining the substrate specificity of an enzyme” (JPT Peptide Technologies GmbH, priority 2001, dated 2011)

Molecular target: T1, protein kinase A (Bos taurus, UniProt P00517)
T1 construct: purchased Sigma P26452 as printed
Assay: Incubation of modified glass surface (960 spots) with protein kinase A (FIG. 7, Example 27)
Type: biochemical
Conditions: aldehyde-functionalised glass, amino-oxy linkage, protein kinase A 10 U/mL, 30 min at 25° C.
Method: FIG. 7. A glass surface modified with the peptide Dpr(Aoa)-Leu-Arg-Arg-Ala-Ser-Leu-Gly-NH2 (see Example 22) was first pre-incubated for 10 minutes using 10 ml of 100 μM ATP solution in 50 mM of sodium phosphate buffer pH 7.5. […] After incubation for 30 min at 25° C. the phosphorylation of the corresponding peptides was detected using a FUJIFILM PhosphorImager (see Example 14). […] It is furthermore clear that the resolution of the PhosphorImager used here is sufficient to analyse more than 950 measurement points per biochip.
A glass surface modified with the peptide Dpr(Aoa)-Leu-Arg-Arg-Ala-Ser-Leu-Gly-NH2 (see Example 22) was incubated with 10 mL of 100 μM ATP in kinase buffer (50 mM tris-HCl, 150 mM NaCl, 30 mM MgCl2, 4 mM DTT, 2 mM EGTA, pH 7.5) for 10 minutes at room temperature. The glass surface was dried and a second unmodified glass surface of the same dimensions was then placed on the peptide-modified glass surface. […] Incubation was then carried out for 30 min at room temperature in an almost water-saturated atmosphere. […]
After drying the glass surface the quantity of radioactive phosphate incorporated in the glass-surface-bound peptides was determined using a PhosphorImager system (FLA-3000, FUJIFILM) (see FIG. 7).

For “Dpr(Aoa)-Leu-Arg-Arg-Ala-Ser-Leu-Gly-NH2 ({Dpr(Aoa)}-LRRASLG-NH2)”, the “linking of the immobilised kinase substrate tolerated by protein kinase A” value was “tolerated by the protein kinase A”.
